Test results reported in PMC6168074 (Cell reports, 2017).

T1: Damb (DAMB) (Drosophila melanogaster, UniProt Q24563)
T1 sequence (Q24563 1-539): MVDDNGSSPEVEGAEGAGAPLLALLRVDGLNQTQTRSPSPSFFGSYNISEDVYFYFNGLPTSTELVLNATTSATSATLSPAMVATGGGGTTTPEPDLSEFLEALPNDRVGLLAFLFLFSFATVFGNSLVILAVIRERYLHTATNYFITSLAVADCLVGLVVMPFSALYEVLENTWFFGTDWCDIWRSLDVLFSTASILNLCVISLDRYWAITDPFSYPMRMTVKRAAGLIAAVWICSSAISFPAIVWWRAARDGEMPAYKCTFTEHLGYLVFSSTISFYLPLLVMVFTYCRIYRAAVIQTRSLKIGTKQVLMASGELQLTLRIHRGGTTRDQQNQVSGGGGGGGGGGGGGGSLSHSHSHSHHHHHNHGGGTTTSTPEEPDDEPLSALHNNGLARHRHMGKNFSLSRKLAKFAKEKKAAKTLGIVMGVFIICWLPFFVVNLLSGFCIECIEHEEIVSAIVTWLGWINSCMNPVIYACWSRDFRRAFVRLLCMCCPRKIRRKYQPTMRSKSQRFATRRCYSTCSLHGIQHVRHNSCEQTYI


What was measured:
[1] = target: T1, Damb (DAMB); assay: real-time BRET G protein activation assay, HEK293T/[…] cells; type: cell-based
[2] = target: Drosophila Gαq isoform G (Drosophila)
[3] = target: Drosophila Gαs isoform A (Drosophila)

EC50 [1] [nM] | rate of G protein activation (BRET, 100 μM DA, HEK293T/17 cells) [2] [s⁻¹] | rate of G protein activation (BRET, 100 μM DA, HEK293T/17 cells) [3] [s⁻¹] | Molecule
56.7 ± 7.7 |  |  | NCCc1ccc(O)c(O)c1 [dopamine]
 | 2.71 | 0.46 | Damb (DopAmine receptor expressed in Mushroom Bodies) (receptor) MVDDNGSSPEVEGAEGAGAPLLALLRVDGLNQTQTRSPSPSFFGSYNISEDVYFYFNGLPTSTELVLNATTSATSATLSPAMVATGGGGTTTPEPDLSEFLEALPNDRVGLLAFLFLFSFATVFGNSLVILAVIRERYLHTATNYFITSLAVADCLVGLVVMPFSALYEVLENTWFFGTDWCDIWRSLDVLFSTASILNLCVISLDRYWAITDPFSYPMRMTVKRAAGLIAAVWICSSAISFPAIVWWRAARDGEMPAYKCTFTEHLGYLVFSSTISFYLPLLVMVFTYCRIYRAAVIQTRSLKIGTKQVLMASGELQLTLRIHRGGTTRDQQNQVSGGGGGGGGGGGGGGSLSHSHSHSHHHHHNHGGGTTTSTPEEPDDEPLSALHNNGLARHRHMGKNFSLSRKLAKFAKEKKAAKTLGIVMGVFIICWLPFFVVNLLSGFCIECIEHEEIVSAIVTWLGWINSCMNPVIYACWSRDFRRAFVRLLCMCCPRKIRRKYQPTMRSKSQRFATRRCYSTCSLHGIQHVRHNSCEQTYI
